Values belong to the substance of their own block, whether it stands above or below them.
What was measured:
[1] = target: recombinant HER2 antigen (ectodomain of hHER2) (Homo sapiens) (UniProt P04626); test: SPR; ProteOn XPR36, GLC chip; HER2 antigen immobilised by amine coupling at 1000 RU; antibodies (M802 0 to 50 nM) injected; 1:1 L interaction model; KD = Kd/Ka
[2] = target: recombinant CD3 antigen (ectodomain of hCD3) (human) (UniProt P07766); test: SPR; ProteOn XPR36, GLC chip; CD3 antigen immobilised by amine coupling at 1000 RU; antibodies (M802 0 to 50 nM) injected; Two state interaction model; KD = Kd/Ka
[3] = target: HER2 on SK-BR-3 cells (human (endogenous in SK-BR-3)) (UniProt P04626); test: flow cytometry on cells; SK-BR-3 or Jurkat cells with serially diluted antibody, 1 h at room temperature; PE-conjugated anti-human IgG Fc as secondary antibody
[4] = target: recombinant CD3 antigen (ectodomain of hCD3) (human) (UniProt P07766); test: SPR; ProteOn XPR36; HER2 and CD3 antigens amine-coupled on a GLC chip at 1000 RU; M802 (0 to 50 nM) and other antibodies injected; 1:1 L interaction model for HER2, two state interaction model for CD3
[5] = target: recombinant HER2 antigen (ectodomain of hHER2) (Homo sapiens) (UniProt P04626); test: as above
[6] = target: CD3 on Jurkat cells (human (endogenous in Jurkat)) (UniProt P07766); test: FACS; settings: bispecific antibody
[7] = target: HER2 on SK-BR-3 cells (human (endogenous in SK-BR-3)) (UniProt P04626); test: FACS; settings: bispecific antibody

Sequence of recombinant CD3 antigen (ectodomain of hCD3) (human) (P07766 23-126): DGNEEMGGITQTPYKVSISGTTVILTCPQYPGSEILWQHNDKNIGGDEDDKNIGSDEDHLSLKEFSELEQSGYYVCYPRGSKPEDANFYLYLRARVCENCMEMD
Sequence of CD3 on Jurkat cells (human (endogenous in Jurkat)) (P07766 23-207, chain 1 of 3): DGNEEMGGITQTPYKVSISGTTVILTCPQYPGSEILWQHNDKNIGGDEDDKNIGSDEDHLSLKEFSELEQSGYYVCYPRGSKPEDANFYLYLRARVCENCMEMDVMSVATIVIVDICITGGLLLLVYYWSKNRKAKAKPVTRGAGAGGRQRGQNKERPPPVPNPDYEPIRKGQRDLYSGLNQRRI
Sequence of CD3 on Jurkat cells (human (endogenous in Jurkat)) (P04234 22-171, chain 2 of 3, further chain): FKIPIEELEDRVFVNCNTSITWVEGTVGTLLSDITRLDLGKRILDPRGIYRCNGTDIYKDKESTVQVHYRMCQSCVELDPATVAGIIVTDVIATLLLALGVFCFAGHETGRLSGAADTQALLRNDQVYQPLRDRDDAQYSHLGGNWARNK
Sequence of CD3 on Jurkat cells (human (endogenous in Jurkat)) (P09693 23-182, chain 3 of 3, further chain): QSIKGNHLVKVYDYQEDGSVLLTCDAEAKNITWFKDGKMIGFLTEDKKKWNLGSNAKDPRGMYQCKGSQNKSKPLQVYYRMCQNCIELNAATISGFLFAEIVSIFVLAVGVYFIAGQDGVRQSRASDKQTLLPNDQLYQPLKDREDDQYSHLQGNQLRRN

koff [1]: 0.000248 s⁻¹
kon [1]: 429000 M⁻¹ s⁻¹
koff [2]: 0.0245 s⁻¹
kon [2]: 345000 M⁻¹ s⁻¹
Substance: M802, anti-HER2/CD3 bispecific antibody (monovalent unit against HER2 and single chain unit against CD3)

fold weaker affinity than Herceptin [3]: 3 fold
Kd [4]: 71.2 nM
Kd [5]: 0.578 nM
Substance: M802, anti-HER2/CD3 bispecific antibody (MSBODY format: monovalent unit against HER2 and single chain unit against CD3)

Kd [6]: 187 nM
Kd [7]: 11.7 nM
Substance: M802, anti-HER2/CD3 bispecific antibody (MSBODY format: monovalent unit against HER2 and single chain unit against CD3) (from UniProt P01857)
